The values that follow come from publication PMC5928759, “D-Serine Metabolism and Its Importance in Development of Dictyostelium discoideum” (Frontiers in Microbiology, 2018).

Data set [1] concerns the target T1, D-amino acid oxidase (DAO; DDB0238432 protein) (Dictyostelium discoideum, UniProt Q556W1).
T1 construct: gene ddo-1; cDNA from EST clone in pET15b, N-terminal 6-His tag, expressed in E. coli Rosetta (DE3), Ni-NTA purified
Put plainly: UV-visible spectrum of purified enzyme. It counts as binding. The conditions noted are these: oxidized flavin, maxima around 360 and 450 nm; FAD in storage buffer.

Substrate in data set [2]: N[C@H](CO)C(=O)O
Kind of data set: purified protein. The settings on record: oxidative deamination, 50 mM Tris-HCl pH 8.5, 20 μM FAD.

Substrate in data set [3]: C[C@@H](N)C(=O)O
Kind of data set: purified protein. The settings on record: oxidative deamination, 50 mM Tris-HCl pH 8.5, 20 μM FAD.

As for `Cc1cc2nc3c(=O)[nH]c(=O)nc-3n(C[C@H](O)[C@H](O)[C@H](O)COP(=O)(O)OP(=O)(O)OC[C@H]3O[C@@H](n4cnc5c(N)ncnc54)[C@H](O)[C@@H]3O)c2cc1C` [FAD], in data set [1], the “UV-visible spectrum of purified enzyme” value was “indicating that it possesses an oxidized form of the flavin cofactor”.

B1: D-amino acid oxidase (DAO; DDB0238432 protein) (Dictyostelium discoideum) (protein)
chain: MNQNKNNNNKNPKINLLIIGCGCIGLSTGIIALKSGNYKSVSIWAKDLPPNTTSNKAAALWYPFLCNPLDLVGKWSAETMQYYKDHIINDPKSGTITKKVNEIFRRPHPEDPEWKPYIKSFRRARKDELPDGYVDGYAIDDGFVMDTDMYMDYLVDQFKSLGGIIEQRHLVDIREAFVDHDVVVNCTGLGSRELFNDRTIYPGRGQIIVIKNSTDRSIMDEEDHIAYVIPRLTNTVLGGTNQEHDYNTNPTKKDTEEILKRVAMISPRFAKNRIEIQGVKVGLRPARHEIRLENEFFEGGSKLVVHNYGHGGSGFTVSWGCAIEAIKLVDQGLPKLLHFNKLISKL
As for B1, in “purified protein [2]”, the Km came out at 6.1 ± 0.78 mM, the kcat was 0.05 s⁻¹ and the kcat/Km was 10 M⁻¹ s⁻¹. Besides, in “purified protein [3]”, the Km was 0.78 ± 0.05 mM, the kcat came to 0.53 s⁻¹ and the kcat/Km worked out at 680 M⁻¹ s⁻¹.

For orientation: Km means the concentration of substrate that gives half-maximal velocity. The kcat is the number of substrate molecules converted per active site and unit of time at saturation. By kcat/Km is commonly meant the turnover number divided by the Michaelis constant.
